Legend:
[1] = target: RBDSARS-CoV-2 (SARS-CoV-2 S protein residues 319-539, C-terminal His-tag) (SARS-CoV-2, UniProt P0DTC2 319-539); experiment: ELISA
[2] = target: RBDSARS-CoV (SARS-CoV S protein residues 318-510, C-terminal His-tag) (SARS-CoV, UniProt P59594 318-510); experiment: ELISA
[3] = target: spike of SARS-CoV-2 Munich strain (authentic virus) (SARS-CoV-2); experiment: cell-based or functional assay

Binder	IC50 [1] [nM]	IC50 [2] [nM]	PRNT SARS-CoV-2 Munich IC50 [3] [nM]
4P-76 (VHH) VHH: EVQLVESGGGLVQAGDSLRLSCAASERTGINYAMGWFRQAPGKERDFVAAIGWNGSITKYAESVKGRFTLSRDDAMNTVSLQMNSLKPEDTAVYYCAARIGSIANLQYREYEFAYWGQGTQVTVSS	10 to 100	1000 to 8000	
5p-16 (VHH) VHH: DVQLVESGGGLVQAGGSLRLSCLASGRTFSNYAMAWFRQSPGKEREFVAVITSGRSTDYADSVKGRFTISRDNAKNTVYLQMNSLKPEDTAVYYCAADQAPLRFSYSLSRDKYDYWGQGTQVTVSS	< 10	10 to 100	
4P-12 (VHH) VHH: DVQLVESGGGLVQAGGSLRLSCAASGRTFSSYTMGWFRQAPGKEREFVAVISSGRSTDYADSVKGRFTISRDNAKNTVYLQMNSLKPEDTAVYYCAADQAPLRFSYSLSRDEYDYWGQGTQVTVSS	< 10	10 to 100	
5p-17 (VHH) VHH: QVQLVESGGGLVQAGGSLRVSCAASGRSFSDYAMAWFRQSPGKEREFVAVITSGRSTDYADSVKGRFTISRDNAKNTVYLQMNSLKPEDTAVYYCAADQTPLRFSYSLSRDKYDYWGQGTQVTVSS	< 10	< 10	
4P-85 (VHH) VHH: QVQLVESGGGLVQAGGSLRLSCAVSGRTVSTYGMAWFRQTPGKKERDFVATITRSEGTTFYADSVKGRFTISRDNAKNTVYLQMNSLKIEDTAVYYCAVRRDSSWGYSRDLFEYDDWGQGTQVTVSS	< 10	< 10	
4P-26 (VHH) VHH: QVQLVESGGGLVQAGGSLRLSCAASGDTLRSYNMGWFRQAPGKEREFVAVISWTGVGTYYGDSVKGRFTISRDVIKNTLYLQMDSLKPEDTAIYYCAADSTTYRLHSAGSDYLYWGQGTQVTVSS	< 10	> 8000	
4P-17 (VHH) VHH: HVQLVESGGGLVQAGASLRLSCAASGRTASNYVMGWFRQAAGKEREFVAHISWSGDETNYADSVRGRFIISRDNAENTVYLQMNSLKPEDTAVYYCAADRGYSLMYYSSREYTYWGQGTQVTVSS	< 10	1000 to 8000	
R58 (VHH) VHH: QVQLVESGGGLVQAGGSLRLSCAASGRDFSSTVMGWFRQAPGKERELVAWMTVTYDITYYADSVKGRFTISKDNAKNTVYLQANSLKPDDTAVYYCASGALRVGSFSPDYWGQGTQVTVSS	10 to 100	1000 to 8000	
4P-74 (VHH) VHH: HVQLVESGGGLVQAGGSLRLSCATSGRTFSTYRMSWFRQAPGKEREFVATIIWSVGSTHYADSVKGRFTISRDNAKNMVYLQMNSLKPEDTAVYYCAAQRSDSSSWGYEDDYDYWGQGTQVTVSS	< 10	> 8000	
5p-18 (VHH) VHH: EVQLVESGGGLVQAGGSLRLSCEASGRTFSSYAMGWFRQAPGKEREFVAAISQGGSTDYGDSTKGRFTISRDNAKNTVYLQMNSLKPEDTAVYYCAADQTPLRYAYSTRSQDYDYWGQGTQVTVSS	< 10	< 10	
4P-89 (VHH) VHH: HVQLVESGGGLVQAGGSLRLSCAASGRTLTTYSMAWFRQAPGKEREVVAAITPTGFGTYYADFVKGRFTISRNSAKNTVYLQMDSLKPEDTAVYYCAARSEIIIASPTGGEYDYWGQGTQVTVSS	< 10	10 to 100	
5p-15 (VHH) VHH: QVQLVESGGGLVQPGDSLRLACAASGGTFGYYALGWFRQAPGKEREFVGSITQTGFGTKYADAVKGRFTISRDNAKNTMYLQMNSLKPEDTAVYYCAADPTAQNMGIRDPPYWGQGTQVTVSS	10 to 100	10 to 100	
4P-19 (VHH) VHH: HVQLVESGGGLVQAGGSLRLSCAASGRTVSSEFMGWFRQAPGKEREFVAAITWDGGSTYYTDSVKGRFTISRDNAKNTVYLQMNSLKPEDTAVYYCAADRSIFQSYYSAKYPNNYEYWGQGTQVTVSS	< 10	100 to 1000	
R37 (VHH) VHH: QVQLVESGGGLVQTGGSLRLSCAASGRTFSNYVMGWFRQAPGKEREFVSSIEWNSENTFYANSVKGRFTISRDNAKNTVYLQMNSLKAEDTAVYYCAADRGSSYYYTRASEYTYWGQGTQVTVSS	< 10	< 10	
R117 (VHH) VHH: HVQLVESGGGLVQAGGSLRLSCAAPGRTFSTSAMGWFRQAPGKEREFVAAIDWSNTNIHYADTVKGRFTISTDTAKNTVYLQMNNLKPEDTAVYYCAQGGWGLTQPISVDYWGKGTQVTVSS	< 10	100 to 1000	
4P-10 (VHH) VHH: HVQLVESGGGLVQAGDSLRLSCTASGRTFSAYGMGWFRQAPGKEREFVAGIARSGSEYYGDSVKGRFTISRDNAKNTVYLQMASLKAEDTGVYYCAADPTILYHAISQRTQNYRYWGPGTQVTVSS	< 10	100 to 1000	
5p-24 (VHH) VHH: DVQLVESGGGLVQAGDSLRLSCTASGLTFSAYGMGWFRQAPGKEREFVAGIARSGSEFYGDSVKGRFTISRDNAKNTVYLQVNSLRPEDTALYYCAADRTILYHAISQRTQNYQYWGPGTQVTVSS	< 10	< 10	
4P-9 (VHH) VHH: QVQLVESGGGLVQAGDSLRLSCTASGRTFSAYGMGWFRQAPGKEREFVAGIARSGSEYYGDSVKGRFTISRDNAKNTVYLQMASLKAEDTGVYYCAADPTILYHAISQRTQNYRHWGPGTQVTVSS	< 10	100 to 1000	
4P-32 (VHH) VHH: DVQLVESGGGLVQAGGSLRLTCAASGRTFSSDTMDMGWFRQAPGKERQFVAADAWNDGRTYYADSVKGRFTISRDNAKNTLYLQMNSLKPEDTAVYYCAADTYSNYEKDYSWGYWGQGTQVTVSS	< 10	1000 to 8000	
4P-61 (VHH) VHH: QVQLVESGGGLVQAGGSLRLSCAASGSTFNTRNIAWYRQAPGKQRELVAGITNAGATIYADSVKGRFTISRDNAKNTMYLQIDSLKPEDTAVYYCNRIVGTYPWGQGTQVTVSS	< 10	10 to 100	
4P-56 (VHH, class IV psNb) VHH: QVQLVESGGGLVQAGGSLRLSCAASGRTDSISDMGWFRQAPGKEREFVAVVGWSGGGTDYAHSVKGRFTISRDNAKNTVYLQMNSLKPEDTAVYYCAVGSLRVGSFSVEYWGQGTQVTVSS	< 10	10 to 100	
4P-4 (VHH) VHH: DVQLVESGGGLVQAGDSLRLSCAASGRTFGNYVLDWFRQAPGKEREFVASITQTGFGTYYADAVKGRFTISRDNAKNTMYLQMNSLKPEDTAVYYCAADFTAQNRGIRIPRYWGQGTQVTVSS	10 to 100	100 to 1000	
4P-5 (VHH) VHH: DVQLVESGGGLVQAGGSLRLSCAASGRTFGNYVLDWFRQAPGKEREFVASITQTGFGTYYADAVKGRFTISRDNAKNTMYLQMNSLKPEDTAVYYCAADFTVQNGGIRNPTYWGQGTQVTVSS	10 to 100	100 to 1000	
5p-20 (VHH) VHH: HVQLVESGGGLVQAGGSLRLSCAASGGTFSAYAMGWFRQVPGKEREFVAGIARSGSDYYGDSVKGRFIISRDNTKNTVYLQMNSLKAEDTGVYYCAADRAILYHGLSQRTQAYAYWGPGTQVTVSS	< 10	100 to 1000	
R113 (VHH) VHH: HVQLVESGGGLVQPGGSLRLSCAASGRSFNSYLMGWFRQAPGKEREFVAWISGSPHDIIRYRDSVKDRFTISRDNAKNTVYLQMNSLKPVDTAVYYCAVGSLRVGSFSPDYWGQGTQVTVSS	< 10	10 to 100	
4P-21 (VHH) VHH: HVQLVESGGGLAQAGGNLRLSCAASGGTFSDYAMGWFRRPPGKEREFVAAISRGGSTFYADSVKGRFTISRDNAKNTVYLQMTSLKPEDTAVYYCAADRSPLFFGVPRSHGEYDYWGQGTQVTVSS	< 10	< 10	
5p-182 (VHH, class I psNb) VHH: EVQLVESGGGLVQTGGSLRLSCALSGYTFSIFPTAWFRQAPGKEREFVAGIRWNGSTRDYTEYADFVKGRFTISRDNAKNMVYLQMISLKPEDTALYYCAASDGVIDGTNANAYRYWGQGTQVTVSS	< 10	1000 to 8000	0.35
4P-28 (VHH) VHH: QVQLVESGGGLVQAGGSLRLSCAASGRTFSHYPTGWFRQAPGKEREFVSTISESGTSTYYADSVKGRFTISRDNAKNSVYLQMNSLKPEDTALYYCAADTAGRTQYGSSWSTLDGFVYWGQGTQVTVSS	10 to 100	1000 to 8000	
5p-10 (VHH) VHH: QVQLVESGGGLVQAGGSLRLSCAASGRTFSSSAMGWFRQAPGKDREFVAAISPSSTNTGYTDSVKGRFTISRDNTKNTVDLQMNNLKPEDTAIYYCAADANSLRYGYSQNQGRYEYWGQGTQVTVSS	< 10	10 to 100	
5p-23 (VHH) VHH: HVQLVESGGGLVQAGDSLRLSCAASGGTFSSYAMGWFRQVPGKEREFVAAISRGGSTDYADSVKGRFTISRDNAKNTVNLQMNSLKPEDTAVYYCAADRSPLFWGMSQSHGEYDYWGQGTQVTVSS	< 10	10 to 100	

— US20250002563A1 (UNIVERSITY OF PITTSBURGH OF THE COMMONWEALTH SYSTEM OF …, published 2025)
